# Results: the DeepSol protein solubility set
# Test: soluble on expression in E. coli; label from the status in PepcDB or PDB records
row,Sequence,soluble on expression in E. coli
1,PGRFALVFKDVTDRRRSEEALRESEAMFRSLTEAMPQLVWSARPDGSCDFFNRRWTDCTGASTEMAMGDGWRAFYHPDDQPAIDRLWPKALRTGEHYEIEYRLRHRDGSYRWMLGRGVPVRDEAGGILRWMGTCTDIH,not soluble
2,PHANGLEQISGGDTNMFRLAKEQGYETYFYSAQAENEMAILNLIGKKWIDHLIQPTQLGYGNGDNMPDEKLLPLFDKINLQQGKHFIVLHQRGSHAPYGALLQPQDKVFGEADIVDKYDNTIHKTDQMIQTVFEQLQKQPDGNWLFAYTSDHGQYVRQDIYNQGTVQPDSYLVPLVLYSPDKAVQQAANQAFAPCEIAFHQQLSTFLIHTLGYDMPVSGCREGSVTGNLITGDAGSLNIRDGKAEYVYPQ,not soluble
3,PKIENPILIEGYPGIGLVGHIAANFLAKELKMEVIGYVESSFIPPMSLILEGKPNPPLRFYGKDNIIIAVADIYLPPTLINEIAKEIANYLEQNKAEKVISLGGMGIGIFKDKFEVWGVGGTEEENKELQDLGVKILEYGSISGMSGKLLWEASRRGLKSYVILGETFGDRPDPRAAANVVEVLDRMLTLNVSVEPLLKEAEMIEEQLRKMHEQMEKARRSVEKQYETMYL,not soluble
4,PKLPTISQFNVTPFLAFISPDYKTHIDPNEVESVFEVPANHILNPNKLYSSKFELKRSSHRVFAIPYRQHFIWGMTAQIIESMQKHIISG,not soluble
5,PLGLAPTASTTATLAMGDALAVALLIERGFRPEDFALFHPGGSLGKKLLLTVGDLMHSGDAVPLVGSATPIRDALFVITAKGLGITGVCAEDGALVGVVTDGDLRRSLGKGVDILNQPAGEIMTRNPKRINRSELAAKALQVMESHSITSLFVFDDTADNRPVGVIHLHDLLRA,not soluble
6,PLVKISGSSTVFPITEAVSEDFQAAKKGAIMVTAGIAGTGGGFKKFCRDEVDIVNASRPILSSEMEQCRQNGVQYIEMPIAFDALTVVVNPGNDWIKSMTVAELKKIWEPAAQEKILNWNQVNPAWPNARIKLFGAGADS,not soluble
7,PNIEFFTLKTPDGSELDSVQVTGEDEEKKPMGERKFIITCIARDQNFINWIKDLNYTAKNLGATAISFNYRGVDYSRGLVWTENNLVDDILAQVQRLISLGADPKNICLDGMCIGGAVATIAAAKLHEKG,not soluble
8,PNKDVKIVKEVLLYKGSPFTGNIIMNTEDQKDGYIGGISLKNGHLDGLSELKNDRQGQHMRFTVVGGKFDGELIMNDPSQNTYIMLDINKGAIVKYLADIQGVYKYDLNFVNNLANGSMEAQGQIFTFKNGIAKGPQGQELKLTLNPATGDLEMEAFVNGKAAGKQTIPNVLTPQYLESFLFQSITDTNN,not soluble
9,PPESDGFSDVRKVGYLRKPKSMHKRFFVLRAASEAGGPARLEYYENEKKWRHKSSAPKRSIPLESCFNINKRADSKNKHLVALYTRDEHFAIAADSEAEQDSWYQALLQLHNRAKGHHDGAAALGAGGGGGSCSGSSGLGEAGEDLSYGDVPPGPAFKEVWQVILKPKGLGQTKNLIGIYRLCLTSKTISFVKLNSEAAAVVLQLMNIRRCGHSENFFFIEVGRSAVTGPGEFWMQVDDSVVAQNMHETILEAMRAMSDEFRPR,soluble
10,PPRKKVATGRRDITKKSEGKPHPTQTYEHELLATQLSNKKMMPFKSQIRARSFDEYKDWVCHDGEEFLLILSGEVMFYSEFYEPVVLSEGDSVYYDANMGHMLTSVSEEDAQILWVTAK,not soluble
11,PQASAKEYVTTTGLSPDGNQYSIGWEVPSTQEPARRSKRSTKDYAFETNQLENGMQTLIHIENSEAPTEYRFPLSLPQEAEVIPFSEGSED,not soluble
12,PRAAARGGGGDAGTRGRGFVQAGRGAPMAECGRGGAAGGALPTSPGPALGAKGALKAGVGEGGGGGGRLGHGRARYDSGGVSNGDCSLGVSGDEARASPTRGPRGVALAPTPSAVVCTLPRESKPGGLPRRSSIIKDGTKQKRERKKTVSFSSMPTEKKISSASDCINSMVEGSELKKVRSNSRIYHRYFLLDADMQSLRWEPSKKDSEKAKIDIKSIKEVRTGKNTDIFRSNGISDQISEDCAFSVIYGENYESLDLVANSADVANIWVTGLRYLISYGKHTLDMLESSQDNMRTSWVSQMFSEIDVDNLGHITLCNAVQCIRNLNPGLKTSKIELKFKELHKSKDKAGTEVTKEEFIEVFHELCTRPEIYFLLVQFSSNKEFLDTKDLMMFLEAEQGVAHINEEISLEIIHKYEPSKEGQEKGWLSIDGFTNYLMSPDCYIFDPEHKKVCQDMKQPLSHYFINSSHNTYLIEDQFRGPSDITGYIRALKMGCRSVELDVWDGPDNEPVIYTGHTMTSQIVFRSVIDIINKYAFFASEYPLILCLENHCSIKQQKVMVQHMKKLLGDKLYTTSPNVEESYLPSPDVLKGKILIKAKKLSSNCSGVEGDVTDEDEGAEMSQRMGKENMEQPNNVPVKRFQLCKELSELVSICKSVQFKEFQVSFQVQKYWEVCSFNEVLASKYANENPGDFVNYNKRFLARVFPSPMRIDSSNMNPQDFWKCGCQIVAMNFQTPGLMMDLNIGWFRQNGNCGYVLRPAIMREEVSFFSANTKDSVPGVSPQLLHIKIISGQNFPKPKGSGAKGDVVDPYVYVEIHGIPADCAEQRTKTVHQNGDAPIFDESFEFQINLPELAMVRFVVLDDDYIGDEFIGQYTIPFECLQTGYRHVPLQSLTGEVLAHASLFVHVAITNRRGGGKPHKRGLSVRKGKKSREYASLRTLWIKTVDEVFKNAQPPIRDATDLRENMQNAVVSFKELCGLSSVANLMQCMLAVSPRFLGPDNTPLVVLNLSEQYPTMELQGIVPEVLKKIVTTYDMMIQSLKALIENADAVYEKIVHCQKAAMEFHEHLHSIGTKEGLKERKLQKAVESFTWNITILKGQADLLKYAKNETLENLKQIHFAAVSCGLNKPGTENADVQKPRRSLEVIPEKANDETGE,soluble
13,PVERMRMRPWLEEQINSNTIPGLKWLNKEKKIFQIPWMHAARHGWDVEKDAPLFRNWAIHTGKHQPGIDKPDPKTWKANFRCAMNSLPDIEEVKDRSIKKGNNAFRVYRMLP,soluble
14,PVTETVDGQGQAWRHHNGFDFAVIKELKTAASQYGATAPYTLAIVESVADNWLTPTDWNTLVRAVLSGGDHLLWKSEFFENCRDTAKRNQQAGNGWDFDMLTGSGNYSSTDAQMQYDPGLFAQIQAAATKAWRKLPVKGD,soluble
15,PYSYDLIFGDVNTTNFYAQFAKKHNTHMWSKIQSTQNGEIGFHKNSKTGQQRH,soluble
16,QALASDSEEADEVPEWLREGEFVTVGAHKTGVVRYVGPADFQEGTWVGVELDLPSGKNDGSIGGKQYFRCNPGYGLLVRPSRVRRAT,soluble
17,QAMLIGEIMDLNLKNFLEDREEIIRDAKRKDEKSFKDFKKIVEEIKERENKDKIVCDFTEYNPLHKGHKYALEKGKEHGIFISVLPGPLERSGRGIPYFLNRYIRAEMAIRAGADIVVEGPPMGIMGSGQYMRCLIKMFYSLGAEIIPRGYIPEKTMEKVIDCINKGYHIQVKPYKIICIETGEILGEKLNIDNYVIASMSQMIYKLNREGLKFNPKFVFVKRLEGISGTKIREAIFSGKFEDIKNMLPKTTLSILKELYDNGKLNELILKRFEDRILETANEYDLYEYLPSNVAEILEKKRPFNNIEEIKNSLPYGFSRHFRERILSKLEARIPNETLSKYINNYPAKIKILAVKL,soluble
18,QAPGWLKEMRGEHAPETEEYGIASTAYRARRPFHPQRFFDLINRPWTNGKLLRSKGFFWLASKYKDAGSWSQAGGLMRHGFAGRWWRFVTRDSWPQDKESVASILENWSSETGDCRQELVFIGQNIDFTLLTAELDNCLLTDDEMAAGAERWRQLSDPFGEWYEDEVAA,not soluble
19,QCSSEVTARYKATLLKGNSLTDLTGGFGIDCAFLAARFKSATYVERQQELCEIAAHNFPILNLNHINVKNEDGVSYLQAMSPVDCIFLDPARRNEHGGKTVAISDCEPDVAELEELLLNKAEQVMVKLSPM,not soluble
20,QDFAEIYARFSDERANEQANRCSQCGVPFCQVHCPVSNNIPDWLKLTSEGRLEEAYEVSQATNNFPEICGRICPQDRLCEGNCVIEQSTHGAVTIGSVEKYINDTAWDQGWVKPRTPSRELGLSVGVIGAGPAGLAAAEELRAKGYEVHVYDRYDRMGGLLVYGIPGFKLEKSVVERRVKLLADAGVIYHPNFEVGRDASLPELRRKHVAVLVATGVYKARDIKAPGSGLGNIVAALDYLTTSNKVSLGDTVEAYENGSLNAAGKHVVVLGGGDTAMDCVRTAIRQGATSVKCLYRRDRKNMPGSQREVAHAEEEGVEFIWQAAPEGFTGDTVVTGVRAVRIHLGVADATGRQTPQVIEGSEFTVQADLVIKALGFEPEDLPNAFDEPELKVTRWGTLLVDHRTKMTNMDGVFAAGDIVRGASLVVWAIRDGRDAAEGIHAYAKAKAEAPVAVAAE,soluble
21,QDLARIEQFLDALWLEKNLAENTLNAYRRDLSMMVEWLHHRGLTLATAQSDDLQALLAERLEGGYKATSSARLLSAVRRLFQYLYREKFREDDPSAHLASPKLPQRLPKDLSEAQVERLLQAPLIDQPLELRDKAMLEVLYATGLRVSELVGLTMSDISLRQGVVRVIGKGNKERLVPLGEEAVYWLETYLEHGRPWLLNGVSIDVLFPSQRAQQMTRQTFWHRIKHYAVLAGIDSEKLSPHVLRHAFATHLLNHGADLRVVQMLLGHSDLSTTQIYTHVATERLRQLHQ,soluble
22,QDSTSDLIPAPPLSKVPLQQNFQDNQFHGKWYQVGRAGNAALREDKDPQKMTAQIYELKEDKSYNVTAVRFRKKKCDYATMTFVPGSQPGEFTLGNIKSYPGLTSYLVRVVSTNYNQHAMVFFKKVSQNREYFSITLLGRTKELASELKENFIRFSKSLGLPENHIVFPVPIDQCIDGSAHHHHHH,soluble
23,QEDVTVKSVTLITKVFPEGEKVCAVVIEYPVEIDGQKLSPDQFSVKVKTGDTYSSRTITKVYANNSGGLSFSIFNNRGKYVVLELSTEDLHSNTIVFGPNFLNTRMKLDYIVSQLVPIFDVDGNEVEPFTSKQTDEKHLIIDDFLAFTFKDPETGVEIPYRLFVPKDVNPDRKYPLVVFLHGAGERGTDNYLQVAGNRGAVVWAQPRYQVVHPCFVLAPQCPPNSSWSTLFTDRENPFNPEKPLLAVIKIIRKLLDEYNIDENRIYITGLSMGGYGTWTAIMEFPELFAAAIPICGGGDVSKVERIKDIPIWVFHAEDDPVVPVENSRVLVKKLAEIGGKVRYTEYEKGFMEKHGWDPHGSWIPTYENQEAIEWLFEQSR,soluble
24,QEQLVESGGRLVTPGTALTLTCKVSGFSLSGFWLNWVRQAPGKGLEWVGAIYRGSGSEWYASWAKGRFTISDTSTTVTLKLTSPTTEDTATYFCAADTTDNGYFTIWGPGTLVTVSSASTKGPSVFPLAPSAKSTSGGTAALGCLVKDYFPEPVTVSWNSGALTSGVHTFPAVLQSSGLYSLSSVVTVPSSSLGTQTYICNVNHKPSNTKVDKKAEPKSCDKTRGHHHHHH,soluble
25,QFWDLNAKLVDIPTKMRVERWAFNFSELIRDPKGRQSFQHFLRKEFSGENLGFWEACEDLKYGDQSKVKEKAEEIYKLFLAPGARRWINIDGKTMDITVKGLKHPHRYVLDAAQTHIYMLMKKDSYARYLKSPIYKEMLAKAIEPQG,soluble
